Columns and labels:
[1] = molecular target: T1, RR_1586 (Clostridioides difficile R20291, UniProt A0A9R0BKD1 1-223); assay: EMSA; 10 mM Mg2+; EMSA: 5 pmol DNA in 10 ul (500 nM), 10 mM Tris pH 8, 50 mM NaCl, 10 mM MgCl2, room temperature 10 min; 10% PAGE 0.5x TBE on ice, ethidium bromide; conditions: protein: recombinant; tags: His6; chain copies: 2; blunt
[2] = molecular target: T1, RR_1586; assay: EMSA; 10 mM Mg2+; unphosphorylated; EMSA: 5 pmol DNA in 10 ul (500 nM), 10 mM Tris pH 8, 50 mM NaCl, 10 mM MgCl2, room temperature 10 min; 10% PAGE 0.5x TBE on ice, ethidium bromide; conditions: protein: recombinant; tags: His6; chain copies: 2; blunt

Row | Binder | binding result [1] | binding result [2]
1 | CDR20291_3121 (pst) site (dsDNA) DNA 1: CTATATTAGGATTAAGTTAAGCAAGTGT DNA 2: ACACTTGCTTAACTTAATCCTAATATAG | binds | –
2 | CDR20291_3145 site (dsDNA) DNA 1: ATAGTTAAGGTTTAATTAAGATTAAA DNA 2: TTTAATCTTAATTAAACCTTAACTAT | binds | –
3 | CDR20291_1583 site (dsDNA) DNA 1: AGGAATTAAGGAGCAATTAAATGATG DNA 2: CATCATTTAATTGCTCCTTAATTCCT | – | binds
4 | CDR20291_0578 native direct repeat (dsDNA) DNA 1: ATTTTATTAAGAATGGGTTAAGAGTATAC DNA 2: GTATACTCTTAACCCATTCTTAATAAAAT | binds | –
